Reference: paper PMC6239180

Experiments:
[1] = target: T1, hPcf11 (CF II subunit);hClp1 (CF II subunit or alone) (human;human, UniProt O94913;Q92989 1-1555;1-425, |); assay: EMSA
[2] = target: T1, hPcf11 (CF II subunit);hClp1 (CF II …); assay: UV cross-linking and immunoprecipitation

T1 sequence (O94913 whole entry, chain 1 of 2): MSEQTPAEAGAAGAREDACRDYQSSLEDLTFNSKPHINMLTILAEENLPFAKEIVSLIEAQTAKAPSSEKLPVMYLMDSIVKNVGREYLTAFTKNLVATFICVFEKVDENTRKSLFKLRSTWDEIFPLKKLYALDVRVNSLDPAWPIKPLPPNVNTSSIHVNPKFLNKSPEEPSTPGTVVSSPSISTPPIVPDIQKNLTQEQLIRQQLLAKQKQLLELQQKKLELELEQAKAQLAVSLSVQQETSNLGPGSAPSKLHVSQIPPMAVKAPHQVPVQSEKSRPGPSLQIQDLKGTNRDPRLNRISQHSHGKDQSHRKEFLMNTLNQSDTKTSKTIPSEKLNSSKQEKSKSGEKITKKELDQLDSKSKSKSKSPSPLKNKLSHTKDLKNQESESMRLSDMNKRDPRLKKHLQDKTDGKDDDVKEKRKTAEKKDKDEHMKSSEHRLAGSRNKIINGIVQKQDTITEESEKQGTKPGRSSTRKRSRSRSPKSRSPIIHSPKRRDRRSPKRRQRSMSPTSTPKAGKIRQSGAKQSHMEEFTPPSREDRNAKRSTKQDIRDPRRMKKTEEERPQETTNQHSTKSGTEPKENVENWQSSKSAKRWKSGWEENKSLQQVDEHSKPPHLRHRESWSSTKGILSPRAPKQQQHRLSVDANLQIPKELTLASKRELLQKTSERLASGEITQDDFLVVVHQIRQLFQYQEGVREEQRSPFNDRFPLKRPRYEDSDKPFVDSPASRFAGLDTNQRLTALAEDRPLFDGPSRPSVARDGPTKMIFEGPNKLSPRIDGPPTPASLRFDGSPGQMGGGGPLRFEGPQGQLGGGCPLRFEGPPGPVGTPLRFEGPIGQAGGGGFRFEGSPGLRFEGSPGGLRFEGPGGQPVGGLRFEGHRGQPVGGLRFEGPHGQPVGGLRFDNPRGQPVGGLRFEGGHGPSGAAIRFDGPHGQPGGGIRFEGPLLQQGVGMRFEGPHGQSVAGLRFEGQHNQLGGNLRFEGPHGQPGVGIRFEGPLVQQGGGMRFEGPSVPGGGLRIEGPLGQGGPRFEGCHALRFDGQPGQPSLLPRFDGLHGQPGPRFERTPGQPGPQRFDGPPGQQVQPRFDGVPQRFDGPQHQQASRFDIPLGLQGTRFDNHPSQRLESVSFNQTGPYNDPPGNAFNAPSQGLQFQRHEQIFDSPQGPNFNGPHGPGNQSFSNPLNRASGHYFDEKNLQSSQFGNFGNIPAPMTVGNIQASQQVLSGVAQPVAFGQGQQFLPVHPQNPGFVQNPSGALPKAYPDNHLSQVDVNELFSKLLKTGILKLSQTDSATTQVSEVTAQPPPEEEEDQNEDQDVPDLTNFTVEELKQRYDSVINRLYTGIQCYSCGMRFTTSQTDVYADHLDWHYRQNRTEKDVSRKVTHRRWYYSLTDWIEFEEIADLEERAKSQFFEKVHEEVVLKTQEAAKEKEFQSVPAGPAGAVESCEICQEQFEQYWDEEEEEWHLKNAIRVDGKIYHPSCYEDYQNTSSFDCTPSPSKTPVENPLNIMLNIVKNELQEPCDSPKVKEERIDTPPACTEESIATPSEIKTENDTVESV
T1 sequence (Q92989 whole entry, chain 2 of 2): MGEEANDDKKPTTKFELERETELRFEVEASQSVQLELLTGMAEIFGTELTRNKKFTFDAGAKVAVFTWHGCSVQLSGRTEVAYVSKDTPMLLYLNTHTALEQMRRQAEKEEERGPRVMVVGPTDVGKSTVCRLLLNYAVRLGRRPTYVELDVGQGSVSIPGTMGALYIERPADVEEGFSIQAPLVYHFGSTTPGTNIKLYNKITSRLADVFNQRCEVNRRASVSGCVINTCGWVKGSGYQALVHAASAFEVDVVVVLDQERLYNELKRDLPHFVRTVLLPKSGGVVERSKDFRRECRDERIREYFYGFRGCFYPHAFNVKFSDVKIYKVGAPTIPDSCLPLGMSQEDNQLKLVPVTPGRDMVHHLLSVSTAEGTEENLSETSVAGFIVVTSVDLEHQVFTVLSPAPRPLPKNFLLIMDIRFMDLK

Binder	Kd [1] [nM]	binding result [2]
GGGGGGGGGGGGGG (ssRNA) [G14]	~2	
UUUUUUUUUUUUUU (ssRNA) [U14]		binds
